Results from paper PMC4925323 (Molecular microbiology, 2016).

Biological target: the molecule itself
Assay: crystal structure

B1: Listeria monocytogenes PrsA1 (residues 22-294), wild type (domain or fragment)
chain: CGSSAVIKTDAGSVTQDELYEAMKTTYGNEVVQQLTFKKILEDKYTVTEKEVNAEYKKYEEQYGDSFESTLSSNNLTKTSFKENLEYNLLVQKATEANMDVSESKLKAYYKTWEPDITVRHILVDDEATAKEIQTKLKNGEKFTDLAKEYSTDTATSTNGGLLDPFGPGEMDETFEKAAYALENKDDVSGIVKSTYGYHLIQLVKKTEKGTYAKEKANVKAAYIKSQLTSENMTAALKKELKAANIDIKDSDLKDAFADYTSTSSTSSTTTSN
- stoichiometry N: 2
